Reference: the supplement of paper PMC9112550, “Optimization of the antimicrobial peptide Bac7 by deep mutational scanning” (BMC Biology, 2022)

Each sequence was assayed on Escherichia coli TOP10 (assay: shrunken log2 fold change of peptide-encoding DNA abundance (4.5 h post-induction vs induction); higher = less antimicrobial activity (less host growth inhibition)). Settings: time post-induction: 4.5 h; library: site-saturation at positions 5, 18, 19, 20.
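Also: peptides expressed intracellularly from a pBAD plasmid library in pooled LB shake-flask culture, induced with 0.3% L-arabinose, DNA abundance read by NGS, three biological replicates, DESeq2 with apeglm shrinkage.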

In order of rising “shrunken log2 fold change” value:
1. RRIRYRPPRLPRPRPRPFIHPRP  -1.54
2. RRIRCRPPRLPRPRPRPYRGPRP  -0.992
3. RRIRHRPPRLPRPRPRPNNHPRP  -0.915
4. RRIRCRPPRLPRPRPRPKYSPRP  -0.898
5. RRIRFRPPRLPRPRPRPNHPPRP  -0.84
6. RRIRPRPPRLPRPRPRPYKNPRP  -0.775
7. RRIRLRPPRLPRPRPRPSIKPRP  -0.684
8. RRIRPRPPRLPRPRPRPQHIPRP  -0.648
9. RRIRIRPPRLPRPRPRPFSIPRP  -0.643
10. RRIRYRPPRLPRPRPRPACHPRP  -0.453
11. RRIRYRPPRLPRPRPRPRFYPRP  -0.45
12. RRIRCRPPRLPRPRPRPMNAPRP  -0.422
13. RRIRFRPPRLPRPRPRPSFMPRP  -0.393
14. RRIRSRPPRLPRPRPRPCSYPRP  -0.379
15. RRIRNRPPRLPRPRPRPQTYPRP  -0.375
16. RRIRHRPPRLPRPRPRPHNMPRP  -0.364
17. RRIRVRPPRLPRPRPRPGFYPRP  -0.345
18. RRIRHRPPRLPRPRPRPSEAPRP  -0.344
19. RRIRNRPPRLPRPRPRPSIVPRP  -0.335
20. RRIRERPPRLPRPRPRPQTLPRP  -0.324
21. RRIRARPPRLPRPRPRPINKPRP  -0.311
22. RRIRIRPPRLPRPRPRPHLWPRP  -0.256
23. RRIRERPPRLPRPRPRPICTPRP  -0.249
24. RRIRFRPPRLPRPRPRPTVHPRP  -0.238
25. RRIRQRPPRLPRPRPRPHQYPRP  -0.237
26. RRIRDRPPRLPRPRPRPPHIPRP  -0.213
27. RRIRPRPPRLPRPRPRPYAPPRP  -0.207
28. RRIRTRPPRLPRPRPRPWAIPRP  -0.205
29. RRIRERPPRLPRPRPRPHNAPRP  -0.192
30. RRIRIRPPRLPRPRPRPMYAPRP  -0.191
31. RRIRFRPPRLPRPRPRPYGSPRP  -0.182
32. RRIRNRPPRLPRPRPRPTALPRP  -0.18
33. RRIRHRPPRLPRPRPRPVEFPRP  -0.178
34. RRIRERPPRLPRPRPRPTANPRP  -0.154
35. RRIRERPPRLPRPRPRPGSHPRP  -0.152
36. RRIRERPPRLPRPRPRPFCPPRP  -0.149
37. RRIRNRPPRLPRPRPRPIIWPRP  -0.139
38. RRIRIRPPRLPRPRPRPQTLPRP  -0.129
39. RRIRPRPPRLPRPRPRPVWEPRP  -0.126
40. RRIRYRPPRLPRPRPRPYNSPRP  -0.102
41. RRIRLRPPRLPRPRPRPCNDPRP  -0.101
42. RRIRIRPPRLPRPRPRPVGEPRP  -0.0964
43. RRIRWRPPRLPRPRPRPFGYPRP  -0.0944
44. RRIRERPPRLPRPRPRPPCEPRP  -0.075
45. RRIRWRPPRLPRPRPRPGSSPRP  -0.0655
46. RRIRSRPPRLPRPRPRPYGKPRP  -0.0603
47. RRIRPRPPRLPRPRPRPMHDPRP  -0.0561
48. RRIRRRPPRLPRPRPRPIHLPRP  -0.0465
49. RRIRVRPPRLPRPRPRPLICPRP  -0.0443
50. RRIRGRPPRLPRPRPRPCRPPRP  -0.04
51. RRIRYRPPRLPRPRPRPDVQPRP  -0.0317
52. RRIRPRPPRLPRPRPRPKIIPRP  -0.0308
53. RRIRWRPPRLPRPRPRPGPHPRP  -0.0302
54. RRIRERPPRLPRPRPRPAQIPRP  -0.0282
55. RRIRLRPPRLPRPRPRPTTSPRP  -0.0271
56. RRIRFRPPRLPRPRPRPEEWPRP  -0.0208
57. RRIRCRPPRLPRPRPRPHERPRP  -0.0193
58. RRIRSRPPRLPRPRPRPMDNPRP  -0.0175
59. RRIRLRPPRLPRPRPRPWDRPRP  -0.0145
60. RRIRRRPPRLPRPRPRPQCIPRP  -0.0103
61. RRIRHRPPRLPRPRPRPDDSPRP  -0.01
62. RRIRARPPRLPRPRPRPIWWPRP  -0.00662
63. RRIRRRPPRLPRPRPRPMTNPRP  -0.00301
64. RRIRSRPPRLPRPRPRPFAGPRP  -0.00284
65. RRIRMRPPRLPRPRPRPDMSPRP  -0.00277
66. RRIRDRPPRLPRPRPRPADGPRP  -0.00193
67. RRIRTRPPRLPRPRPRPCVWPRP  -0.000289
68. RRIRIRPPRLPRPRPRPGPKPRP  0.00436
69. RRIRWRPPRLPRPRPRPLDLPRP  0.00678
70. RRIRERPPRLPRPRPRPAVMPRP  0.0088
71. RRIRGRPPRLPRPRPRPQTWPRP  0.0175
72. RRIRKRPPRLPRPRPRPSNKPRP  0.0208
73. RRIRDRPPRLPRPRPRPTGFPRP  0.0286
74. RRIRHRPPRLPRPRPRPERSPRP  0.0418
75. RRIRKRPPRLPRPRPRPDDIPRP  0.0454
76. RRIRNRPPRLPRPRPRPQQMPRP  0.0512
77. RRIRDRPPRLPRPRPRPIKKPRP  0.0559
78. RRIRPRPPRLPRPRPRPHEQPRP  0.0602
79. RRIRIRPPRLPRPRPRPRVQPRP  0.0871
80. RRIRDRPPRLPRPRPRPDPTPRP  0.0932
81. RRIRYRPPRLPRPRPRPIVGPRP  0.1
82. RRIRTRPPRLPRPRPRPEERPRP  0.12
83. RRIRHRPPRLPRPRPRPRSQPRP  0.136
84. RRIRIRPPRLPRPRPRPDAPPRP  0.14
85. RRIRARPPRLPRPRPRPTKDPRP  0.144
86. RRIRKRPPRLPRPRPRPLFFPRP  0.147
87. RRIRTRPPRLPRPRPRPGFFPRP  0.147
88. RRIRERPPRLPRPRPRPVWSPRP  0.158
89. RRIRIRPPRLPRPRPRPVRAPRP  0.172
90. RRIRARPPRLPRPRPRPQPLPRP  0.209
91. RRIRTRPPRLPRPRPRPNDRPRP  0.21
92. RRIRFRPPRLPRPRPRPGMQPRP  0.237
93. RRIRLRPPRLPRPRPRPSWHPRP  0.25
94. RRIRDRPPRLPRPRPRPPKTPRP  0.257
95. RRIRARPPRLPRPRPRPDANPRP  0.275
96. RRIRRRPPRLPRPRPRPGGRPRP  0.295
97. RRIRKRPPRLPRPRPRPTMMPRP  0.316
98. RRIRNRPPRLPRPRPRPAALPRP  0.341
99. RRIRARPPRLPRPRPRPPWHPRP  0.342
100. RRIRRRPPRLPRPRPRPVNAPRP  0.37
101. RRIRTRPPRLPRPRPRPHWVPRP  0.381
102. RRIRRRPPRLPRPRPRPWLFPRP  0.383
103. RRIRWRPPRLPRPRPRPQTKPRP  0.434
104. RRIRVRPPRLPRPRPRPETCPRP  0.437
105. RRIRRRPPRLPRPRPRPREIPRP  0.479
106. RRIRCRPPRLPRPRPRPGVWPRP  0.537
107. RRIRARPPRLPRPRPRPDCQPRP  0.55
108. RRIRKRPPRLPRPRPRPAASPRP  0.593
109. RRIRSRPPRLPRPRPRPIMRPRP  0.73
110. RRIRARPPRLPRPRPRPTRFPRP  0.737
111. RRIRKRPPRLPRPRPRPRPHPRP  0.762
112. RRIRKRPPRLPRPRPRPPPHPRP  0.781
113. RRIRRRPPRLPRPRPRPGGWPRP  0.824
114. RRIRGRPPRLPRPRPRPLARPRP  0.91
115. RRIRGRPPRLPRPRPRPLAMPRP  0.94
116. RRIRFRPPRLPRPRPRPRPKPRP  0.98
117. RRIRARPPRLPRPRPRPPHKPRP  0.996
118. RRIRARPPRLPRPRPRPLEEPRP  1.04
119. RRIRKRPPRLPRPRPRPFFWPRP  1.09
120. RRIRMRPPRLPRPRPRPDVWPRP  1.19
121. RRIRGRPPRLPRPRPRPPHDPRP  1.27
122. RRIRMRPPRLPRPRPRPDIWPRP  1.41
123. RRIRMRPPRLPRPRPRPVCRPRP  1.48
124. RRIRGRPPRLPRPRPRPDEAPRP  1.56
125. RRIRMRPPRLPRPRPRPPDQPRP  2.01
